Biological target: HLA-A*01:01 (Homo sapiens, UniProt P04439, A114D/A174V/A182V/D101N/D185E/E176A/E190D/L180R/Q94H/R68K/S129P/T187R/V100A/V91M/W191G)
Assay: MHC binding assay: UV-ligand exchange, ELISA of stabilized MHC complexes (peptide exchange yield)
Conditions: binding to HLA-A*01:01, UV-ligand exchange
Source text: Candidate peptides for T cell based therapies according to the present invention were further tested for their MHC binding capacity (affinity). The individual peptide-MHC complexes were produced by UV-ligand exchange, where a UV-sensitive peptide is cleaved upon UV-irradiation and exchanged with the peptide of interest as analyzed. Only peptide candidates that can effectively bind and stabilize the peptide-receptive MHC molecules prevent dissociation of the MHC complexes. To determine the yield of the exchange reaction, an ELISA was performed based on the detection of the light chain (β2m) of stabilized MHC complexes. The assay was performed as generally described in Rodenko et al. (Rodenko et al., 2006)
96 well MAXISorp plates (NUNC) were coated over night with 2 ug/ml streptavidin in PBS at room temperature, washed 4× and blocked for 1 h at 37° C. in 2% BSA containing blocking buffer. Refolded HLA-A*02:01/MLA-001 monomers served as standards, covering the range of 15-500 ng/ml. Peptide-MHC monomers of the UV-exchange reaction were diluted 100-fold in blocking buffer. Samples were incubated for 1 h at 37° C., washed four times, incubated with 2 ug/ml HRP conjugated anti-β2m for 1 h at 37° C., washed again and detected with TMB solution that is stopped with […]. Absorption was measured at 450 nm.

Row | Substance | Peptide exchange
1 | 167 (RAVQPGETY; listed as Homo sapiens) [compound 167] | +++ (>50 = +++)
2 | 169 (TVDNANILL; listed as Homo sapiens) [compound 169] | ++ (>20% = ++)
3 | 172 (FSEPFHLIV; listed as Homo sapiens) [compound 172] | +++ (>50 = +++)
4 | 174 (TSEVEGLAFVSY; listed as Homo sapiens) [compound 174] | +++ (>50 = +++)
5 | 175 (GLEYEAPKLY; listed as Homo sapiens) [compound 175] | ++ (>20% = ++)
6 | 178 (TQRTSFQFY; listed as Homo sapiens) [compound 178] | ++ (>20% = ++)
7 | 179 (SSTDFTFASW; listed as Homo sapiens) [compound 179] | + (>10% =+)
8 | 182 (TQPELSSRY; listed as Homo sapiens) [compound 182] | ++ (>20% = ++)
9 | 184 (KTIQEVAGY; listed as Homo sapiens) [compound 184] | ++ (>20% = ++)
10 | 185 (NSDESADSEPHKY; listed as Homo sapiens) [compound 185] | ++++ (>75% = ++++)
11 | 191 (FTRAFDQLRM; listed as Homo sapiens) [compound 191] | +++ (>50 = +++)
12 | 192 (LAFYYGMY; listed as Homo sapiens) [compound 192] | ++ (>20% = ++)
13 | 196 (RLAQYTIERY; listed as Homo sapiens) [compound 196] | ++ (>20% = ++)
14 | 197 (NDEIDKLTGY; listed as Homo sapiens) [compound 197] | ++++ (>75% = ++++)
15 | 199 (LCAAVLAKY; listed as Homo sapiens) [compound 199] | ++ (>20% = ++)
16 | 200 (SLPEFGLTY; listed as Homo sapiens) [compound 200] | ++ (>20% = ++)

Row | Substance | Peptide exchange
17 | 202 (QTDINGGSLK; listed as Homo sapiens) [compound 202] | +++ (>50 = +++)
18 | 210 (LLEADPFLKY; listed as Homo sapiens) [compound 210] | ++++ (>75% = ++++)
19 | 211 (YLNEWGSRF; listed as Homo sapiens) [compound 211] | ++ (>20% = ++)
20 | 214 (VQDPSLPVY; listed as Homo sapiens) [compound 214] | ++ (>20% = ++)
21 | 215 (DTLEAATSLY; listed as Homo sapiens) [compound 215] | ++ (>20% = ++)
22 | 218 (FTAQLQLY; listed as Homo sapiens) [compound 218] | +++ (>50 = +++)
23 | 224 (RTDEGDNRVW; listed as Homo sapiens) [compound 224] | ++ (>20% = ++)
24 | 228 (KSFDDIAKY; listed as Homo sapiens) [compound 228] | ++ (>20% = ++)
25 | 229 (MTDVFIDY; listed as Homo sapiens) [compound 229] | +++ (>50 = +++)
26 | 231 (LLPLLVMAY; listed as Homo sapiens) [compound 231] | ++ (>20% = ++)
27 | 233 (RINSATGQY; listed as Homo sapiens) [compound 233] | ++ (>20% = ++)
28 | 234 (YTDLTTIQV; listed as Homo sapiens) [compound 234] | ++++ (>75% = ++++)
29 | 238 (ETDWGLLKGHTY; listed as Homo sapiens) [compound 238] | ++++ (>75% = ++++)
30 | 239 (SSERGSPIEKY; listed as Homo sapiens) [compound 239] | +++ (>50 = +++)
31 | 240 (EVLDSLLAQY; listed as Homo sapiens) [compound 240] | ++ (>20% = ++)

Next, values leading:

Row | Peptide exchange | Substance
32 | +++ (>50 = +++) | 168 (VQPGETYTY; listed as Homo sapiens) [compound 168]
33 | +++ (>50 = +++) | 170 (VQIAKGMNY; listed as Homo sapiens) [compound 170]
34 | ++ (>20% = ++) | 171 (ITDFGLAKL; listed as Homo sapiens) [compound 171]
35 | +++ (>50 = +++) | 173 (QSTTGVSHY; listed as Homo sapiens) [compound 173]
36 | +++ (>50 = +++) | 176 (HTDLESPSAVY; listed as Homo sapiens) [compound 176]
37 | ++ (>20% = ++) | 177 (LVDGKWQEF; listed as Homo sapiens) [compound 177]
38 | ++ (>20% = ++) | 180 (AQISDTGRY; listed as Homo sapiens) [compound 180]
39 | ++ (>20% = ++) | 181 (SVTDLIGGKW; listed as Homo sapiens) [compound 181]
40 | ++ (>20% = ++) | 183 (LADTDLGMTF; listed as Homo sapiens) [compound 183]
41 | ++ (>20% = ++) | 186 (AVSSGLFFY; listed as Homo sapiens) [compound 186]
42 | ++ (>20% = ++) | 187 (TQKSVQVLAY; listed as Homo sapiens) [compound 187]
43 | +++ (>50 = +++) | 188 (DIPDYLLQY; listed as Homo sapiens) [compound 188]
44 | ++ (>20% = ++) | 189 (FRGVFVHRY; listed as Homo sapiens) [compound 189]
45 | ++++ (>75% = ++++) | 190 (VSSTVHNLY; listed as Homo sapiens) [compound 190]
46 | +++ (>50 = +++) | 193 (SQNGQLIHY; listed as Homo sapiens) [compound 193]
47 | +++ (>50 = +++) | 194 (CYTADNEMGY; listed as Homo sapiens) [compound 194]
48 | +++ (>50 = +++) | 195 (YTADNEMGYY; listed as Homo sapiens) [compound 195]
49 | ++ (>20% = ++) | 198 (KLTDYINANY; listed as Homo sapiens) [compound 198]
50 | ++ (>20% = ++) | 201 (SLPEFGLTYY; listed as Homo sapiens) [compound 201]
51 | ++ (>20% = ++) | 203 (LSQDELSKF; listed as Homo sapiens) [compound 203]
52 | ++ (>20% = ++) | 204 (NVKEAPTEY; listed as Homo sapiens) [compound 204]
53 | ++ (>20% = ++) | 205 (RMQEGSEVY; listed as Homo sapiens) [compound 205]

Row | Peptide exchange | Substance
54 | +++ (>50 = +++) | 207 (LLEGEDAHLTQY; listed as Homo sapiens) [compound 207]
55 | ++ (>20% = ++) | 208 (LLISKAEDY; listed as Homo sapiens) [compound 208]
56 | ++ (>20% = ++) | 209 (EADPFLKYL; listed as Homo sapiens) [compound 209]
57 | +++ (>50 = +++) | 212 (MMTDLTSVY; listed as Homo sapiens) [compound 212]
58 | +++ (>50 = +++) | 213 (VSDSTTEITY; listed as Homo sapiens) [compound 213]
59 | ++++ (>75% = ++++) | 216 (NSMLDPLVY; listed as Homo sapiens) [compound 216]
60 | ++ (>20% = ++) | 217 (LMDEGAVLTL; listed as Homo sapiens) [compound 217]
61 | +++ (>50 = +++) | 219 (KTELETALYY; listed as Homo sapiens) [compound 219]
62 | ++ (>20% = ++) | 220 (DVERIKDTY; listed as Homo sapiens) [compound 220]
63 | +++ (>50 = +++) | 221 (TDVERIKDTY; listed as Homo sapiens) [compound 221]
64 | + (>10% =+) | 222 (GSPDAVVSY; listed as Homo sapiens) [compound 222]
65 | + (>10% =+) | 223 (NAVDVVPSSF; listed as Homo sapiens) [compound 223]
66 | +++ (>50 = +++) | 225 (STDPNIVRK; listed as Homo sapiens) [compound 225]
67 | ++ (>20% = ++) | 226 (QITPKHNGLY; listed as Homo sapiens) [compound 226]
68 | ++ (>20% = ++) | 227 (ESAPKEVSRY; listed as Homo sapiens) [compound 227]
69 | +++ (>50 = +++) | 230 (CVIETFHKY; listed as Homo sapiens) [compound 230]
70 | ++ (>20% = ++) | 232 (RYLNIVHATQLY; listed as Homo sapiens) [compound 232]
71 | ++ (>20% = ++) | 235 (SIEIDHTQY; listed as Homo sapiens) [compound 235]
72 | ++++ (>75% = ++++) | 236 (VLDSLLAQY; listed as Homo sapiens) [compound 236]
73 | +++ (>50 = +++) | 237 (AQEAAVFLTLY; listed as Homo sapiens) [compound 237]
74 | ++ (>20% = ++) | 241 (SLMVASLTY; listed as Homo sapiens) [compound 241]
75 | + (>10% =+) | 242 (GTNLPTLLW; listed as Homo sapiens) [compound 242]
